Experiment [1] addresses T1, human MerTK extracellular domain (ECD), recombinant (human, UniProt Q12866 21-505).
T1 construct: also called huMerTK; not shown: polyHis tag or TEVS/Thrombin/murine IgG2a Fc tag
T1 sequence: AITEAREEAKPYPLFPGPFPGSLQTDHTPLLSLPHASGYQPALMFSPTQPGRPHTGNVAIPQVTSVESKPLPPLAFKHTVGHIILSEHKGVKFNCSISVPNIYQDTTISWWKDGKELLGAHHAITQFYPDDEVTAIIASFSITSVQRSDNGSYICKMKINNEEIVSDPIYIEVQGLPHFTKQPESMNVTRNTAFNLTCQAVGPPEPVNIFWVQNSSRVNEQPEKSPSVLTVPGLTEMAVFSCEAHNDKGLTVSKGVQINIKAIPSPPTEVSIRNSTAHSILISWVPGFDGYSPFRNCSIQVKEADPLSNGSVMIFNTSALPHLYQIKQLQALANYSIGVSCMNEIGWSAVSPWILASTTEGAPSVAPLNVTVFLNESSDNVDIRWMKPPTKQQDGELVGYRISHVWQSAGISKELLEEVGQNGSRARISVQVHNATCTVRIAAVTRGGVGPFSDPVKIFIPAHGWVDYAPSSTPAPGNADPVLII
The experiment in a line: SPR, Carterra LSA, antibody immobilised. The procedure, abridged:
(§1)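 Anti-MerTK antibodies diluted to 10 μg/ml in 10 mM Acetate, pH 4.25 were amine-coupled in a 96-spot array onto an HC200M chip activated with MES/sulfo-NHS/EDC, then blocked with 1M Ethanolamine pH 8.5. On a Carterra LSA, recombinant MerTK extracellular domain was injected at 33.3, 100, and 300 nM in HBS-TE with 0.5 mg/ml BSA, lowest to highest without regeneration. KD came from fitted k-on and k-off.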

Experiment [2] has as its target T2, cyno MerTK extracellular domain (ECD), recombinant (cynomolgus monkey, UniProt Q12866 21-505 (human entry)).
T2 construct: also called cynomolgus MerTK; not shown: polyHis tag or TEVS/Thrombin/murine IgG2a Fc tag
T2 chain: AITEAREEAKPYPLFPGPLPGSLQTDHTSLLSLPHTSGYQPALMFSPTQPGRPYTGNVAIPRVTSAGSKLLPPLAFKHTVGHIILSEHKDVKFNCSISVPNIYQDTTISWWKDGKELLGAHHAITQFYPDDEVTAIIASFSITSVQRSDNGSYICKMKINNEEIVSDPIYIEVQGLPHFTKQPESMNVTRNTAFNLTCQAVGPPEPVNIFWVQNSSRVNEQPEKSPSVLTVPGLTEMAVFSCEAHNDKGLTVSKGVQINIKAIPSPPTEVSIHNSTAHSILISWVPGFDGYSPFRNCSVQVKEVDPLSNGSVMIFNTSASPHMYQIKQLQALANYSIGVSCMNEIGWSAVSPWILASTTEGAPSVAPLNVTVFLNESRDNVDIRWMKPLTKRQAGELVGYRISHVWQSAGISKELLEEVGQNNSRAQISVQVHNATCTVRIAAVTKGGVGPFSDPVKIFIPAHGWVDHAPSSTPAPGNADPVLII
The experiment can be described thus: SPR, Carterra LSA, antibody immobilised. The procedure, abridged: as §1
(In general: SPR reads the build-up and loss of mass on a sensor chip optically.)

B1: MTK-05 (antibody, human IgG1, V domains shown)
VH: QVQLQQSGAELVQPGTSVRLSCKTSGYTFTSYWIQWVKQRPGQGLGWIGEIFPGTGTTYYNEKFKGKATLTIDTSSSTAYMQLSSLTSEDSAVYFCARDGAYFDVWGAGTTVTVSS
VL: DIQMTQSPASLSASVGETVTFTCRASENIFSYLAWYQQKQGKSPQLLVYNAKTLAEGVPSRFSGSGSGTHFSLKINSLQPEDFGSYYCLHHYGTPLTFGAGTKLELK
On to B1, for which, in experiment [1], the Kd (usually the constant that tells how readily two partners part at equilibrium) is 6.7 nM. In addition, in experiment [2], the binding result is on record as “no binding (tested: 300 nM)”.

B2: MTK-12 (antibody, human IgG1, V domains shown)
VH: QVQLQQSGPQLVRPGASVKISCKASGYSFTSHWMHWVKQRPGQGLEWIGMIDPSDGESRLNQKFKDKATLTVDKSSSTAYMQLSSPTFEDSAVYYCARGIYYYGITYAMDYWGQGTSVTVSS
VL: QIVLTQSPAIMSASPGEKVTMTCSASSSVSYMYWYQQKPRSSPRLLIYDTSNLASGVPVRFSGSGSGTSYSLTISRMEAEDAATYYCQQWSSYPLTFGAGTKLELK
B2: in experiment [1], the Kd turned out to be 5.3 nM. For the same molecule, in experiment [2], the binding result is listed as “no binding (tested: 300 nM)”.

B3: MTK-03 (antibody, human IgG1, V domains shown)
VH: DVQLQESGPGLVKPSQSLSLTCSVTGYSITSGYYWNWIRQFPGNTLEWMGYMSFDGDNKFNPSLKNRISITRDTSKNQFFLRLNSVTTEDTATYYCARGGYNYGSTEANWGQGTLVTVSA
VL: QIVLTQSPAIMSAFPGEKVTITCSASSSVNYMHWFQQKPGTSPKLWIYSTSNLASGVPARFSGSGSGTSYSLTISRMEAEDAATYYCQQRSSYPFTFGSGTKLEIK
Turning to B3, the values for the Kd in experiment [1] and in experiment [2] were 54 nM and 55 nM, respectively.

B4: MTK-07 (antibody, human IgG1, V domains shown)
VH: DVQLQESGPGLVKPSQSLSLTCSVTGYSITSGYYWNWIRQFPGNTLEWMGYMSFDGDNKFNPSLKNRISITRDTSKNQFFLRLNSVTTEDTATYYCARGGYNYGSTEANWGQGTLVTVST
VL: QIVLTQSPAIMSAFPGEKVTITCSASSSVTYMHWFQQKPGTSPKLWIFSTSNLASGVPARFSGSGSGTSYSLTISRMEAEDAATYYCQQRSSYPFTFGSGTKLEIK
With B4, the equilibrium dissociation constant (Kd) in experiment [1] was found to be 43 nM; in experiment [2], 53 nM.

B5: MTK-16 (antibody, human IgG1, V domains shown)
VH: LIQLVQSGPELKKPGETVKISCKASGYTFTNHGMNWVKQDPGKGLKWMGWINTYTGEPTYADDFKGRFVFSMETSASAAFLQINNLKNEDTATYFCARKGVTAARYFDYWGQGTTLTVSS
VL: DIVMTQSPKFMSTSVGDRVSITCKASQNVRTAVAWYKKKPGQSPKALINLASNRHTGVPDRFTGSGSGTDFTLTISNVQSEDLADYFCLQHWNYPLTFGGGTKLEIK
Consider B5, for which the Kd in experiment [1] is 1.4 nM; in experiment [2] it was 1.6 nM.

B6: MTK-19 (antibody, human IgG1, V domains shown)
VH: EVQLQQSGPELVKPGASVKISCKTSGYTFTEYTMHWVKQSHGKSLEWLGGFNPNNVITSYNQRFQGRATLTVDKSSSTAYMELRSLTSDDSAVYYCTRGDLLWSLLLPGNYFDYWGQGTTLTVSS
VL: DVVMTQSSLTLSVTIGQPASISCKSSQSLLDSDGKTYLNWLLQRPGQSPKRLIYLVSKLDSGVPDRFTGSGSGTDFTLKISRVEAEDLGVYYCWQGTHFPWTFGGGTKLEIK
For B6, the Kd in experiment [1] was 2.4 nM; in experiment [2] it was 12 nM.

B7: MTK-20 (antibody, human IgG1, V domains shown)
VH: QIQLVQSGPELKKPGETVKISCKASGYTFTNYGMTWVKQAPGKGLKWMGWINTYTGEPTYADDFKGRFALSLETSASTAYLQINNLKNEDTATYFCARGGGRLGLRPLDYWGQGTTLTVSS
VL: DIQMTQTTSSLSASLGDRVTISCRASQDINNYLNWYQQKPDGTVKLLIYYTSRLHSGVPSRFSGSGSGTDYSLTISNLEQEDIATYFCQQGNTLPWTFGGGTKLEIK
As for B7, the Kd in experiment [1] was found to be 9.3 nM; in experiment [2], 9.2 nM.

B8: MTK-21 (antibody, human IgG1, V domains shown)
VH: QIQLVQSGPELKKPGETVKISCKASGYTFTNFGMTWVRQAPGMDLKWMGWINTYTGEPKYADDFKGRFALSLETSASTAYLQITNFKNEDTATYFCARGGGRLGLRPLDYWGQGTTLTVSS
VL: DIQMTQTTSSLSASLGDRVTISCRASQDINNYLNWYQQKPDGTVKLLIYYTSSLHSGVPSRFSGSGSGTDYSLTITNLEQEDIATYFCQQGNTLPWTFGGGTRLEIK
B8: the results for the Kd in experiment [1] and in experiment [2] were 40 nM and 43 nM, respectively.

B9: MTK-18 (antibody, human IgG1, V domains shown)
VH: QIQLVQSGPELKKPGETVKISCKASGYTFTHYGMTWVKQAPGKGLKWMGWINTYTGEPTYADDFKGRFAFSLETSASTAYLQINNLKNEDTATYFCARGGGQLGLRPLDYWGQGTTLTVSS
VL: DIQMTQTTSSLSASLGDRVTFSCRASQAISNYLNWYQQKPDGTVKLLIYYTSRLHSGVPSRFSGSGSGTDYSLTISNLEQEDIATYFCQQGNTLPWTFGGGTKLEIK
For the molecule B9, the dissociation constant (Kd) in experiment [1] and in experiment [2] was 18 nM each time.

B10: MTK-01 (antibody, human IgG1, V domains shown)
VH: QIQLVQSGPELKKPGETVKISCKASGYTFTNYGMNWVKQAPGKGLKCMGWINTYTGEPTYADDFKGRFAFSLETSATTAYLQINNLKNEDTATYFCARRDRYTWFAYWGQGTLVTVSA
VL: QIVLSQSPAILSASPGEKVTMTCRASSSVSYMHWYQQKPGSSPKPWIYATSNLASGVPARFSGSGSGTSYSLTISRVEAEDAATYYCQQWSSNPPTFGGGTKLEIK
For the molecule B10, the Kd in experiment [2] was 99 nM.

B11: MTK-06 (antibody, human IgG1, V domains shown)
VH: QIQLVQSGPELKKPGETVKISCKASGYTFTNYGMNWVKQAPGKGLKWMGWINTNTGEPTYAEEFKGRFAFSLETSASTAYLQINNLKNEDTATYFCARYYNYWYFDVWGAGTTVTVSS
VL: QIVLSQSPAILSASPGEKVTMTCRASSSVSYMHWYQQKPGSSPKPWIYATSNLASGVPARFSGSGSGTSYSLTISRVEAEDAATYYCQQWSSKPPTFGGGTKLEIK
As to B11, the values for the Kd in experiment [1] and in experiment [2] were 18 nM and 17 nM, respectively.

B12: MTK-15 (antibody, human IgG1, V domains shown)
VH: QIQLVQSGPELKKPGETVKISCKASGYTFTNYGVHWVKQAPGKGLKWMGWINTYTGEPTYADDFKGRFAFSLETSASTAYLQINNLKNEDMATYFCARGNRYAYMDYWGQGTSVTVSS
VL: QIVLSQSPAILSASPGEKVTMTCRASSSVSYMHWYQQKSGSSPKPWIYATSNLASGVPARFSGSGSGTSYSLTISRVEAEDAATYYCQQWSSNPRTFGGGTKLEIK
Turning to B12, the Kd turned out to be 2.7 nM in experiment [1] and 3 nM in experiment [2].

B13: MTK-04 (antibody, human IgG1, V domains shown)
VH: QIQLVQSGPELKKPGETVKISCKASGYTFTNYGMNWVKQAPGKGLKCMGWINTYTGEPTYADDFKGRFAFSLETSASTAYLQINNLKNEDMATYFCAKYDNYAWFAYWGQGTLVTVSA
VL: QIVLSQSPAFLSASPGEKVTMTCRASSSVSYMHWYLQKPGSSPKPWIYATSNLASGVPVRFSGSGSGTSYSLTISRVEAEDAATYYCQQWSSNPRTFGGGTKLEIR
Take B13: the values for the Kd in experiment [1] and in experiment [2] were 33 nM and 44 nM, respectively.

B14: MTK-33 (antibody, human IgG1, V domains shown)
VH: QVQLQQPGPELVRPGTSVKLSCKASGYTFTSYWMHWIKQRPGQGLEWIGVIDPSDNYINYNQKFKGKATLTVDTSSSTAYLQLSSLTSEDSAVYYCAREAGTRGYFDYWGQGTTLTVSS
VL: SIVMTQTPKFLLVSAGDRVIITCKASQSVSNTVAWYQQKPGQSPKLLIYYASNRYTGVPDRFTGSGYGTDFTFTISTVQAEDLAVYFCQQDYRSPFTFGSGTQLEMK
Turning to B14, the values for the dissociation constant Kd in experiment [1] and in experiment [2] were 6.5 nM and 6.6 nM, respectively.

B15: MTK-17 (antibody, human IgG1, V domains shown)
VH: QIQLVQSGPELKKPGETVKISCKASGYTFTNFGMNWVKQAPGKGLKWMGWINTYTGEPTYADDFKGRFAFSLETSASTAYLQINNLKNEDTATYFCSRGAVLRAGAMDCWGQGTSVTVSS
VL: DIQMTQSSSYLSVSLGGRVTITCKASDHINNWLAWYQQKPGNAPRLLISGATSLETGVPSRFSGSGSGKDYTLSITSLQTEDVATYYCQQYWSTPRTFGGGTKLEIK
For B15, the Kd in experiment [1] was found to be 25 nM; in experiment [2], 24 nM.

B16: MTK-11 (antibody, human IgG1, V domains shown)
VH: QVQLKQSGPGLVQPSQSLSITCTVSGFSLTDYGVHWVRQSPGKGLEWLGVIWSSGTTDYNEAFISRLSISKDNSKSHVFFKMNSLQAIDTAIYYCARKGHDPYAMDYWGQGTSVTVSS
VL: QIVLTQSPAIMSASLGERVTMTCTASSSISSSYFHWYQQKPGSSPKLWIYSTSNLPSGVPARFSGSGSGTSYSLTISSMEAEDAATYYCHQYYRSPLTFGAGTKLELK
For B16, the values for the Kd in experiment [1] and in experiment [2] were 3 nM and 2.9 nM, respectively.

The record behind these values is patent publication US20210261685A1 (Alector, published 2021).
